IntAct's records for PubMed 26258637

B1: Ras-related protein Rab-11A (Homo sapiens), P62491 (parent)
chain: MGTRDDEYDYLFKVVLIGDSGVGKSNLLSRFTRNEFNLESKSTIGVEFATRSIQVDGKTIKAQIWDTAGQERYRAITSAYYRGAVGALLVYDIAKHLTYENVERWLKELRDHADSNIVIMLVGNKSDLRHLRAVPTDEARAFAEKNGLSFIETSALDSTNVEAAFQTILTEIYRIVSQKQMSDRRENDMSPSNNVVPIHVPPTTENKPKVQCCQNI
partner: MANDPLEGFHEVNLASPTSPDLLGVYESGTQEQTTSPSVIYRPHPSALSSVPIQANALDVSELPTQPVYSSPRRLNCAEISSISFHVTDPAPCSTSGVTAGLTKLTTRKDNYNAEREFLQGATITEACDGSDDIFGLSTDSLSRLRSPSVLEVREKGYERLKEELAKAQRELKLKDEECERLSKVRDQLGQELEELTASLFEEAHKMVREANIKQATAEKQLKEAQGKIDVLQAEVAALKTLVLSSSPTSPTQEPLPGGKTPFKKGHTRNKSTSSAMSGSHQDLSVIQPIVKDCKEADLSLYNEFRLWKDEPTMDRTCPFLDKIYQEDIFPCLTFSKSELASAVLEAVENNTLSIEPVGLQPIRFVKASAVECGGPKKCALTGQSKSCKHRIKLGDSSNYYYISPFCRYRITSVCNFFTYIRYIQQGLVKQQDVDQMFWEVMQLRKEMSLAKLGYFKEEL
B2: Rab-3A-interacting protein (Homo sapiens), Q96QF0-2 (parent)
chain: B1 partner

Variants of: B1
Settings: with RAB3IP

Variant	effect of a mutation on the interaction
MGTRDDEYDYLFKVVLIGDSGVGKNNLLSRFTRNEFNLESKSTIGVEFATRSIQVDGKTIKAQIWDTAGQERYRAITSAYYRGAVGALLVYDIAKHLTYENVERWLKELRDHADSNIVIMLVGNKSDLRHLRAVPTDEARAFAEKNGLSFIETSALDSTNVEAAFQTILTEIYRIVSQKQMSDRRENDMSPSNNVVPIHVPPTTENKPKVQCCQNI [S25N]	disrupting interaction strength

Variants of: B2
Settings: with rb11a_human RAB11A

Variant	effect of a mutation on the interaction
MANDPLEGFHEVNLASPTSPDLLGVYESGTQEQTTSPSVIYRPHPSALSSVPIQANALDVSELPTQPVYSSPRRLNCAEISSISFHVTDPAPCSTSGVTAGLTKLTTRKDNYNAEREFLQGATITEACDGSDDIFGLSTDSLSRLRSPSVLEVREKGYERLKEELAKAQRELKLKDEECERLSKVRDQLGQELEELTASLFEEAHKMVREANIKQATAEKQLKEAQGKIDVLQAEVAALKTLVLSSSPTSPTQEPLPGGKTPFKKGHTRNKSTSSAMSGSHQDLSVIQPIVKDCKEADLSLYNEFRLWKDEPTMDRTCPFLDKIYQEDIFPCLTFSKSELASAVLEAVENNTLSIEPVGLQPIRFVKASAVECGGPKKCALTGQSKSCKHRIKLGDSSNYYYISPFCRYRITSVCNFFAYIRAIQQGAVKQQDVDQMFWEVMQLRKEMSLAKLGYFKEEL [T419A;Y423A;L428A]	decreasing interaction strength
